Assay [1] has as its target SARS-CoV-2 Omicron-variant receptor binding domain (RBD) (SARS-CoV-2 Omicron variant). As to the kind of experiment: BLI, IgG.
The target in assay [2] is SARS-CoV-2 Beta-variant Spike with two stabilizing proline substitutions (S-2P) (SARS-CoV-2 Beta variant). As to the kind of experiment: BLI, IgG, single replicate. (Biolayer interferometry detects binding as a change in optical thickness at a sensor tip.)
Assay [3] has as its target SARS-CoV-2 Omicron-variant receptor binding domain (RBD) (SARS-CoV-2 Omicron variant). As to the kind of experiment: BLI, Fab.
Assay [4] addresses SARS-CoV-2 Beta-variant Spike with two stabilizing proline substitutions (S-2P) (SARS-CoV-2 Beta variant). Put plainly: BLI, Fab.
The target of assay [5] is SARS-CoV-2 XBB Spike RBD (SARS-CoV-2 XBB variant). As to the kind of experiment: BLI, IgG.
In assay [6] the target is SARS-CoV-2 XBB.1.5 Spike RBD (SARS-CoV-2 XBB.1.5 variant). Put plainly: BLI, IgG.
Assay [7] has as its target SARS-CoV-2 BQ.1.1 Spike RBD (SARS-CoV-2 BQ.1.1 variant). Put plainly: BLI, IgG.

Results on three molecules are retold here after patent US20250243261A1.

B1: REGN10987 WT IgG (antibody, V domains shown)
VH: QVQLVESGGGVVQPGRSLRLSCAASGFTFSNYAMYWVRQAPGKGLEWVAVISYDGSNKYYADSVKGRFTISRDNSKNTLYLQMNSLRTEDTAVYYCASGSDYGDYLLVYWGQGTLVTVSS
VL: QSALTQPASVSGSPGQSITISCTGTSSDVGGYNYVSWYQQHPGKAPKLMIYDVSKRPSGVSNRFSGSKSGNTASLTISGLQSEDEADYYCNSLTSISTWVFGGGTKLTVL
What is called Kd is the free concentration of one partner at which half of the binding sites on the other are occupied at equilibrium, for simple one-to-one binding. A low value points to a tighter complex. In the case of B1, the results for the Kd in assay [1] and in assay [2] were 700 nM and 0.09 nM, respectively.

B2: REGN10987 WT Fab (Fab, V domains shown)
VH: B1 VH
VL: B1 VL
For the molecule B2, the Kd turned out to be 23000 nM in assay [3] and 13 nM in assay [4].

B3: SA58 WT IgG (antibody, V domains shown)
VH: QVQLAQSGSELRKPGASVKVSCDTSGHSFTSNAIHWVRQAPGQGLEWMGWINTDTGTPTYAQGFTGRFVFSLDTSARTAYLQISSLKADDTAVFYCARERDYSDYFFDYWGQGTLVTVSS
VL: EVVMTQSPASLSVSPGERATLSCRARASLGISTDLAWYQQRPGQAPRLLIYGASTRATGIPARFSGSGSGTEFTLTISSLQSEDSAVYYCQQYSNWPLTFGGGTKVEIK
As to B3, the results for the Kd in assay [5], in assay [6] and in assay [7] were 7400 nM, 2400 nM and < 0.001 nM, respectively.
